According to patent publication US20240182536A1 (MURAL ONCOLOGY, published 2024):
Substitutions are numbered along the chain they refer to. In names and notes the source's numbering stands.

T1: interleukin 18 binding protein (IL-18BP) (UniProt O95998 31-194)
T1 sequence (looked up): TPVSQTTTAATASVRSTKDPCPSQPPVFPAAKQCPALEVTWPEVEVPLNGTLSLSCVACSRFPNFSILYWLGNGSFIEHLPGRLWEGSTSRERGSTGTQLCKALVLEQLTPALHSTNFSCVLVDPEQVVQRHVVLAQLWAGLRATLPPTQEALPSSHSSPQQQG

T2: IL-18 receptors on HEK-Blue IL-18 reporter cells (UniProt Q13478 19-541; O95256 20-599, limits assumed)
T2 sequence (looked up) 1: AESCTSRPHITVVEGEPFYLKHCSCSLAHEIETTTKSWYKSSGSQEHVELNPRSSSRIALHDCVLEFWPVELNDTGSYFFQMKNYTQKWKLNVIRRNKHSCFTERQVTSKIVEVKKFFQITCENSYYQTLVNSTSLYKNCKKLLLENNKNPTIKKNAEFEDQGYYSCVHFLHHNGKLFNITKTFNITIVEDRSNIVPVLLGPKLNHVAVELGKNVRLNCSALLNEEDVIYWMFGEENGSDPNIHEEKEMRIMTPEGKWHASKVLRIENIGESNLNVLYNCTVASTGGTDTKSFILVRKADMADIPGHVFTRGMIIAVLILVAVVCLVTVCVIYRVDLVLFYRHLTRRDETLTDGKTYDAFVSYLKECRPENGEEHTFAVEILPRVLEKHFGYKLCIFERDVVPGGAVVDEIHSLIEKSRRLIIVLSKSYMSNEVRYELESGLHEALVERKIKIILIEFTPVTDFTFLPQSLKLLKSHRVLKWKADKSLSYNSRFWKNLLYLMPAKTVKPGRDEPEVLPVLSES
T2 sequence (looked up) 2: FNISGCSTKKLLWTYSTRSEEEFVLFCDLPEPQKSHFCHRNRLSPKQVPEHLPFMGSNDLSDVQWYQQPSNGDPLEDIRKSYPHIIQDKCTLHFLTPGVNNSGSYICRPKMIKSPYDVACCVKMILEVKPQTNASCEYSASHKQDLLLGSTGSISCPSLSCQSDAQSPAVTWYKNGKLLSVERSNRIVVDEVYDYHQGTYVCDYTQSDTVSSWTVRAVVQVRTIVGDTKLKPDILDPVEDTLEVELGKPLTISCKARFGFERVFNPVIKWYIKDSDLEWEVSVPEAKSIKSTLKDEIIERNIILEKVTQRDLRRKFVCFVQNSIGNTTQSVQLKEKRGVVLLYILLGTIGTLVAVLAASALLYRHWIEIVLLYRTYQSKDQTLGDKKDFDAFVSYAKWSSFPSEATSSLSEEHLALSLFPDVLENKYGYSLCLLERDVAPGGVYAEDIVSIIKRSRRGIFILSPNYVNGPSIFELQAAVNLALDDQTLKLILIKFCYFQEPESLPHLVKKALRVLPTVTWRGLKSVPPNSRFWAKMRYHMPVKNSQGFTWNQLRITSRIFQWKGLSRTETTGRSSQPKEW

B1: IL-18 variant K53Y, S55Y, Q56H (ligand)
chain: YFGKLESKLSVIRNLNDQVLFIDQGNRPLFEDMTDSDMRDNAPRTIFIISMYYDYHPRGMAVTISVKSEKISTLSSENKIISFKEMNPPDNIKDTKSDIIFFQRSVPGHDNKMQFESSSYEGYFLASEKERDLFKLILKKEDELGDRSIMFTVQNED
B2: IL-18 variant K53H, S55I (ligand)
chain: B1 chain with Y53H, Y55I, H56Q
B3: IL-18 variant T34E, N41D, K53N, S55R (ligand)
chain: B1 chain with T34E, N41D, Y53N, Y55R, H56Q
B4: IL-18 variant L9V, K53H, S55M (ligand)
chain: B1 chain with L9V, Y53H, Y55M, H56Q
B5: IL-18 variant K53H, S55Q (ligand)
chain: B1 chain with Y53H, Y55Q, H56Q
B6: IL-18 variant K53H, S55H (ligand)
chain: B1 chain with Y53H, Y55H, H56Q
B7: IL-18 variant K53S, S55F, T63S, R104K, H109Y (ligand)
chain: B1 chain with Y53S, Y55F, H56Q, T63S, R104K, H109Y
B8: IL-18 variant K53H, S55M, Q56H (ligand)
chain: B1 chain with Y53H, Y55M
B9: IL-18 variant K53Y, S55V (ligand)
chain: B1 chain with Y55V, H56Q
B10: IL-18 variant K53L, S55E (ligand)
chain: B1 chain with Y53L, Y55E, H56Q
B11: IL-18 variant K53S, S55Y, P107M (ligand)
chain: B1 chain with Y53S, H56Q, P107M
B12: IL-18 variant S36W, D37E, D40F, N41I, K53D, S55N (ligand)
chain: B1 chain with S36W, D37E, D40F, N41I, Y53D, Y55N, H56Q
B13: IL-18 variant K53N, S55Y (ligand)
chain: B1 chain with Y53N, H56Q

Assays:
[1] = target: T1, interleukin 18 binding protein (IL-18BP); assay: cell-based or functional assay
[2] = target: T2, IL-18 receptors on HEK-Blue IL-18 …; assay: cell-based or functional assay

| Binder | HEK-Blue activity, +100 nM BP, DF-10000 [1] | HEK-Blue activity, +100 nM BP, DF-100,000 [1] | HEK-Blue activity, +100 nM BP, DF-1,000,000 [1] | Ratio (-BP/+BP), DF-10000 [1] | Ratio (-BP/+BP), DF-100,000 [1] | Ratio (-BP/+BP), DF-1,000,000 [1] | HEK-Blue activity, No BP, DF-10000 [2] | HEK-Blue activity, No BP, DF-100,000 [2] | HEK-Blue activity, No BP, DF-1,000,000 [2] |
| --- | --- | --- | --- | --- | --- | --- | --- | --- | --- |
| B1 | 0.22 | 0.2 | 0.19 | 0.73 | 0.76 | 0.73 | 0.16 | 0.15 | 0.14 |
| B2 | 0.16 | 0.11 | 0.1 | 0.92 | 0.9 | 0.89 | 0.14 | 0.1 | 0.09 |
| B3 | 0.1 | 0.13 | 0.09 | 1.42 | 0.74 | 1.05 | 0.14 | 0.1 | 0.09 |
| B4 | 0.16 | 0.1 | 0.14 | 0.94 | 1.01 | 0.78 | 0.15 | 0.1 | 0.11 |
| B5 | 0.14 | 0.1 | 0.1 | 1.03 | 1.03 | 0.91 | 0.14 | 0.1 | 0.09 |
| B6 | 0.15 | 0.1 | 0.09 | 1.01 | 0.99 | 0.96 | 0.15 | 0.1 | 0.08 |
| B7 | 0.13 | 0.09 | 0.09 | 1.03 | 1 | 0.99 | 0.14 | 0.09 | 0.09 |
| B8 | 0.15 | 0.1 | 0.09 | 0.97 | 0.96 | 0.92 | 0.14 | 0.09 | 0.08 |
| B9 | 0.16 | 0.14 | 0.13 | 1.03 | 1.44 | 1.27 | 0.16 | 0.2 | 0.16 |
| B10 | 0.12 | 0.09 | 0.09 | 1.12 | 1.07 | 1.01 | 0.14 | 0.1 | 0.09 |
| B11 | 0.19 | 0.14 | 0.18 | 0.82 | 0.76 | 0.69 | 0.15 | 0.11 | 0.12 |
| B12 | 0.2 | 0.13 | 0.12 | 0.68 | 1.07 | 1.05 | 0.13 | 0.14 | 0.13 |
| B13 | 0.14 | 0.09 | 0.09 | 1.11 | 1.02 | 0.96 | 0.16 | 0.09 | 0.08 |
